According to patent US20140079638A1 (RAMOT AT TEL AVIV UNIVERSITY, published 2014):
No end group written: not given here.

Biological target: αvβ3 integrin receptor on human umbilical vein endothelial cells (HUVEC) (human, UniProt P06756 31-1048; P05106 27-788)
Experiment: cell-based or functional assay

αvβ3 integrin receptor on human umbilical vein endothelial cells (HUVEC), sequence (P06756 31-1048, chain 1 of 2): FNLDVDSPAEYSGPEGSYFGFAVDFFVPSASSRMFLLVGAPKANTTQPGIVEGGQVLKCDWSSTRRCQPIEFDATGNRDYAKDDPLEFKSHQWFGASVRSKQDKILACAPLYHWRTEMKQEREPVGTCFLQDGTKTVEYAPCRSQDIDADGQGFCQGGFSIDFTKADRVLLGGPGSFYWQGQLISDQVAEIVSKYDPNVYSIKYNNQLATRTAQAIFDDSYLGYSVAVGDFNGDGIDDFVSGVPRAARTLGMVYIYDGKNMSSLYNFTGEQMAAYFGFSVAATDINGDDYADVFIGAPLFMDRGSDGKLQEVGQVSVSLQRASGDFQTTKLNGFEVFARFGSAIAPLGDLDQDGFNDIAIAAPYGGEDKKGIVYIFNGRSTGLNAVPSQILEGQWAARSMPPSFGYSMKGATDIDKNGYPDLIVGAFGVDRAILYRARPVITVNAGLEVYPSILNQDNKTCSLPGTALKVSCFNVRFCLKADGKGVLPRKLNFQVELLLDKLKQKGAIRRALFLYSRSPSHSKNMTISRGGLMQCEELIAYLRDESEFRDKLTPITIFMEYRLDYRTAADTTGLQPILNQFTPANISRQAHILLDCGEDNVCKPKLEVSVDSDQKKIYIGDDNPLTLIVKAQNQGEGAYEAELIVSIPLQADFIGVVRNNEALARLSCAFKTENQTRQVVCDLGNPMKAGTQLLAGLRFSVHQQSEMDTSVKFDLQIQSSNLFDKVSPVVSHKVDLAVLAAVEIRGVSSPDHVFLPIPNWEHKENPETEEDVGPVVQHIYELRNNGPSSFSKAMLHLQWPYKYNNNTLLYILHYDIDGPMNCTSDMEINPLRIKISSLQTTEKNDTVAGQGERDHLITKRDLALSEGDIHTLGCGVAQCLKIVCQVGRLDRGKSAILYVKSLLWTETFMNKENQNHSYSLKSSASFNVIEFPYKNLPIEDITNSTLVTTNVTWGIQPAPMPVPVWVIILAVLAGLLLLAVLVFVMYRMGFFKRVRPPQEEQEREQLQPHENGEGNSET
αvβ3 integrin receptor on human umbilical vein endothelial cells (HUVEC), sequence (P05106 27-788, chain 2 of 2): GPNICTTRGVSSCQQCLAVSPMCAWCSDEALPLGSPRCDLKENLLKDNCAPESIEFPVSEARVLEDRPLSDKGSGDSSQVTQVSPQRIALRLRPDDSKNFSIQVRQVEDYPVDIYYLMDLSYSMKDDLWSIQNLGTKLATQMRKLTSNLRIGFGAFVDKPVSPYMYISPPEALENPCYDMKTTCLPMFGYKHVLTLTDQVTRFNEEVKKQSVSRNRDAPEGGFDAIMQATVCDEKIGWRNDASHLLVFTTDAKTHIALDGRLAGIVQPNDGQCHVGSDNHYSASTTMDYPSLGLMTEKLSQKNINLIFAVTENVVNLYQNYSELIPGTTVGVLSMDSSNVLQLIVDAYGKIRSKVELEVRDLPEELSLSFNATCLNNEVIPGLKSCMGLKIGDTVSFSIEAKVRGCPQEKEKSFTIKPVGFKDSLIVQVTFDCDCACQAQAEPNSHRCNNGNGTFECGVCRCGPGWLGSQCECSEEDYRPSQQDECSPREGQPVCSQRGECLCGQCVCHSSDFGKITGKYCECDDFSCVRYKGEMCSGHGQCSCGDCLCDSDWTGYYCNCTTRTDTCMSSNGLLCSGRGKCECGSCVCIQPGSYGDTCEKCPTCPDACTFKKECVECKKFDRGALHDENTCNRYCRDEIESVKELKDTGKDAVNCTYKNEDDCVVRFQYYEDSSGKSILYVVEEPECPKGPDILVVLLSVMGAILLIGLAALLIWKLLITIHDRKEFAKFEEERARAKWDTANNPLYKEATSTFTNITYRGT

B1: PGA-Paclitaxel-E-[c(RGDfk)2] conjugate (SEQ ID NO:18) having a 5.5 mol % PTX and 3.9 mol % E-[c(RGDfk)2] loading (peptide)
peptide: RGDFKERGDFK
modifications: not fully specified (residues 4, 5, 10, 11, bridges); also: two cyclic RGDfk rings joined through Glu spacer, paclitaxel ester-linked to PGA, 5.5 mol %
inhibition of HUVEC adhesion to fibrinogen: ~60%

B2: PGA-Paclitaxel-E-[c(RGDfk)2] conjugate (SEQ ID NO:18) having a 2.6 mol % PTX and 5 mol % E-[c(RGDfk)2] loading (peptide)
peptide: RGDFKERGDFK
modifications: not fully specified (residues 4, 5, 10, 11, bridges); also: two cyclic RGDfk rings joined through Glu spacer, paclitaxel ester-linked to PGA, 2.6 mol %
inhibition of HUVEC adhesion to fibrinogen: ~60%
